Results: article PMC3814370 (2013)

Biological target: Pcc1–Kae1 binary complex from Pyrococcus abyssi (Pyrococcus abyssi (strain GE5 / …, UniProt Q9V1Z9,Q9UXT7))
Assay: gel filtration

Chain of Pcc1–Kae1 binary complex from Pyrococcus abyssi (Pyrococcus abyssi (Q9V1Z9 whole entry, chain 1 of 2): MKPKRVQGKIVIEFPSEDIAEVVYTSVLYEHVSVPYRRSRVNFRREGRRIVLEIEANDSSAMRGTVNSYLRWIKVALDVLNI
Chain of Pcc1–Kae1 binary complex from Pyrococcus abyssi (Pyrococcus abyssi (Q9UXT7 whole entry, chain 2 of 2): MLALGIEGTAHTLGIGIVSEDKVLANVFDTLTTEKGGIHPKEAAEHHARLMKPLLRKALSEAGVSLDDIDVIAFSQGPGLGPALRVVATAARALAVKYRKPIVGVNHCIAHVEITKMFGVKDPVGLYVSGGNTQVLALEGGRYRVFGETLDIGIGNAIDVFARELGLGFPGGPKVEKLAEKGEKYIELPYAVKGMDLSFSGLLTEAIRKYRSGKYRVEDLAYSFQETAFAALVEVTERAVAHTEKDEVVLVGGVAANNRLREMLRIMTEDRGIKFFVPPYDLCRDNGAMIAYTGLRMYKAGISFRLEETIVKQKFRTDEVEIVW

binding result: binds
B1: Bud32–Cgi121 binary complex from Pyrococcus abyssi (protein)
chain 1: MKLIKQGAEAKIYLAEFSELYFDYPIKVIVKERIKKRYRIPEIDLKLRKERTIREARILRRAKEFGVNVPYVFEVDTKNMIIVMEYIEGERLKELLEKLPMEERLKVCREVGRQIGKLHEAGIVHGDLTTSNMILREGKVYFIDFGLAEFDDTIEAQGVDLHLLKRAMESTHYKWFERGFEEVLKGYIEIRGEDKGREIREKIREIELRGRYRERSWITQ
chain 2: MTPKFKNFKHDNSGQVETYLFEVISKYTMLEIKTKFGKLCIAKVKLASESIERALNLCNDNCQIVSAKCHEEVIFATILAIKAFSSGRNTAKTIKGEILLRLAGVKQIKDAIKIIGARKGENLIIYFGVSDPCSSLKDFISSLGLREEPLKPCDEDEVKRGFERAAIIEAL
